Reference: patent US20220033462A1 (ALLOGENE THERAPEUTICS, published 2022)

Each binder was assayed against T1, biotinylated recombinant human PSMA-human IgG1 Fc fusion protein (human, UniProt Q04609 44-750, biotinylated (sites not given)) (assay: flow cytometry, reporter Jurkat cells co-expressing P-CAR1 (FIGS. 1-4)).
T1 construct: Staining reagent; not shown: human IgG1 Fc
T1 sequence (Q04609 44-750 limits assumed): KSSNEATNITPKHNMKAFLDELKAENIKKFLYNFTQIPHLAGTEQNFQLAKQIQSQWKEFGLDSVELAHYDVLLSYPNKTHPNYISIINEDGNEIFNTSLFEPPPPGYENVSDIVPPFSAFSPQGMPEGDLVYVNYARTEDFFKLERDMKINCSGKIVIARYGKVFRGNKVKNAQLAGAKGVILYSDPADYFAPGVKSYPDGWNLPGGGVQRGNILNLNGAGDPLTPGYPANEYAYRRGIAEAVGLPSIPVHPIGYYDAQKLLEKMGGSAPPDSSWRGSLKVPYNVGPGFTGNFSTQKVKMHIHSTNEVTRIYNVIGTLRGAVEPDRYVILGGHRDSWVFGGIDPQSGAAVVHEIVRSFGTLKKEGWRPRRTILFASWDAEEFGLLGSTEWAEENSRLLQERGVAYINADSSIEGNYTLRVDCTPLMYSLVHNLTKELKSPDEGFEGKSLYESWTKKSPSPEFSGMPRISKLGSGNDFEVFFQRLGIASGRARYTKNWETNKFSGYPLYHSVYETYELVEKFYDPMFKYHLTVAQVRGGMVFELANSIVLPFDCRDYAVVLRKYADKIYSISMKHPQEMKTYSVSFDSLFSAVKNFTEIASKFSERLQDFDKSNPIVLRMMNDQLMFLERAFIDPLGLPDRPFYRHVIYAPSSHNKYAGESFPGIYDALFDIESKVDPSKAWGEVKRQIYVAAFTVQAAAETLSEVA

| Binder | binding result |
| --- | --- |
| N-CAR LY9 (SEQ ID No 1999 with intracellular domain SEQ ID No 2008) (other) EVQLQQSGPELVKPGTSVRISCKTSGYTFTEYTIHWVKQSHGKSLEWIGNINPNNGGTTYNQKFEDKATLTVDKSSSTAYMELRSLTSEDSAVYYCAAGWNFDYWGQGTTVTVSSGGGGSGGGGSGGGGSDIVMTQSHKFMSTSVGDRVSIICKASQDVGTAVDWYQQKPGQSPKLLIYWASTRHTGVPDRFTGSGSGTDFTLTITNVQSEDLADYFCQQYNSYPLTFGAGTMLDLKRAAATERRAEVPTAHPSPSPRPAGQFQTLVVGVVGGLLGSLVLLVWVLAVIKRKGRCSVPAFCSSQAEAPADTPEPTAGHTLYSVLSQGYEKLDTPLRPARQQPTPTSDSSSDSNLTTEEDEDRPEVHKPISGRYEVFDQVTQEGAGHDPAPEGQADYDPVTPYVTEVESVVGENTMYAQVFNLQGKTPVSQKEESSATIYCSIRKPQVVPPPQQNDLEIPESPTYENFT | binds |
| N-CAR SIGLEC9 (SEQ ID No 1999 with intracellular domain SEQ ID No 2010) (other) EVQLQQSGPELVKPGTSVRISCKTSGYTFTEYTIHWVKQSHGKSLEWIGNINPNNGGTTYNQKFEDKATLTVDKSSSTAYMELRSLTSEDSAVYYCAAGWNFDYWGQGTTVTVSSGGGGSGGGGSGGGGSDIVMTQSHKFMSTSVGDRVSIICKASQDVGTAVDWYQQKPGQSPKLLIYWASTRHTGVPDRFTGSGSGTDFTLTITNVQSEDLADYFCQQYNSYPLTFGAGTMLDLKRAAATERRAEVPTAHPSPSPRPAGQFQTLVVGVVGGLLGSLVLLVWVLAVIVRSCRKKSARPAAGVGDTGIEDANAVRGSASQGPLTEPWAEDSPPDQPPPASARSSVGEGELQYASLSFQMVKPWDSRGQEATDTEYSEIKIHR | binds |
| N-CAR SIRPA (SEQ ID No 1999 with intracellular domain SEQ ID No 2011) (other) EVQLQQSGPELVKPGTSVRISCKTSGYTFTEYTIHWVKQSHGKSLEWIGNINPNNGGTTYNQKFEDKATLTVDKSSSTAYMELRSLTSEDSAVYYCAAGWNFDYWGQGTTVTVSSGGGGSGGGGSGGGGSDIVMTQSHKFMSTSVGDRVSIICKASQDVGTAVDWYQQKPGQSPKLLIYWASTRHTGVPDRFTGSGSGTDFTLTITNVQSEDLADYFCQQYNSYPLTFGAGTMLDLKRAAATERRAEVPTAHPSPSPRPAGQFQTLVVGVVGGLLGSLVLLVWVLAVIRIRQKKAQGSTSSTRLHEPEKNAREITQDTNDITYADLNLPKGKKPAPQAAEPNNHTEYASIQTSPQPASEDTLTYADLDMVHLNRTPKQPAPKPEPSFSEYASVQVPRK | binds |
| N-CAR PD1 (ITSM mut 1) (SEQ ID No 1999 with intracellular domain SEQ ID No 2014) (other) EVQLQQSGPELVKPGTSVRISCKTSGYTFTEYTIHWVKQSHGKSLEWIGNINPNNGGTTYNQKFEDKATLTVDKSSSTAYMELRSLTSEDSAVYYCAAGWNFDYWGQGTTVTVSSGGGGSGGGGSGGGGSDIVMTQSHKFMSTSVGDRVSIICKASQDVGTAVDWYQQKPGQSPKLLIYWASTRHTGVPDRFTGSGSGTDFTLTITNVQSEDLADYFCQQYNSYPLTFGAGTMLDLKRAAATERRAEVPTAHPSPSPRPAGQFQTLVVGVVGGLLGSLVLLVWVLAVICSRAARGTIGARRTGQPLKEDPSAVPVFSVDYGELDFQWREKTPEPPVPCVPEQTEYSEIVFPSGMGTSSPARRGSADGPRSAQPLRPEDGHCSWPL | binds |
| N-CAR PD1 (ITSM mut 2) (SEQ ID No 1999 with intracellular domain SEQ ID No 2015) (other) EVQLQQSGPELVKPGTSVRISCKTSGYTFTEYTIHWVKQSHGKSLEWIGNINPNNGGTTYNQKFEDKATLTVDKSSSTAYMELRSLTSEDSAVYYCAAGWNFDYWGQGTTVTVSSGGGGSGGGGSGGGGSDIVMTQSHKFMSTSVGDRVSIICKASQDVGTAVDWYQQKPGQSPKLLIYWASTRHTGVPDRFTGSGSGTDFTLTITNVQSEDLADYFCQQYNSYPLTFGAGTMLDLKRAAATERRAEVPTAHPSPSPRPAGQFQTLVVGVVGGLLGSLVLLVWVLAVICSRAARGTIGARRTGQPLKEDPSAVPVFSVDYGELDFQWREKTPEPPVPCVPEQTEYSEVVFPSGMGTSSPARRGSADGPRSAQPLRPEDGHCSWPL | binds |
| N-CAR PD1-KIR2DL2 (SEQ ID No 1999 with intracellular domain SEQ ID No 2017) (other) EVQLQQSGPELVKPGTSVRISCKTSGYTFTEYTIHWVKQSHGKSLEWIGNINPNNGGTTYNQKFEDKATLTVDKSSSTAYMELRSLTSEDSAVYYCAAGWNFDYWGQGTTVTVSSGGGGSGGGGSGGGGSDIVMTQSHKFMSTSVGDRVSIICKASQDVGTAVDWYQQKPGQSPKLLIYWASTRHTGVPDRFTGSGSGTDFTLTITNVQSEDLADYFCQQYNSYPLTFGAGTMLDLKRAAATERRAEVPTAHPSPSPRPAGQFQTLVVGVVGGLLGSLVLLVWVLAVICSRAARGTIGARRTGQPLKEDPSAVPVFSVDYGELDFQWREKTPEPPVPCVPEQTEYATIVFPSGMGTSSPARRGSADGPRSAQPLRPEDGHCSWPLHRWCSNKKNAAVMDQESAGNRTANSEDSDEQDPQEVTYTQLNHCVFTQRKITRPSQRPKTPPTDIIVYAELPNAESRSKVVSCP | binds |
| N-CAR PECAM (SEQ ID No 1999 with intracellular domain SEQ ID No 2009) (other) EVQLQQSGPELVKPGTSVRISCKTSGYTFTEYTIHWVKQSHGKSLEWIGNINPNNGGTTYNQKFEDKATLTVDKSSSTAYMELRSLTSEDSAVYYCAAGWNFDYWGQGTTVTVSSGGGGSGGGGSGGGGSDIVMTQSHKFMSTSVGDRVSIICKASQDVGTAVDWYQQKPGQSPKLLIYWASTRHTGVPDRFTGSGSGTDFTLTITNVQSEDLADYFCQQYNSYPLTFGAGTMLDLKRAAATERRAEVPTAHPSPSPRPAGQFQTLVVGVVGGLLGSLVLLVWVLAVIKCYFLRKAKAKQMPVEMSRPAVPLLNSNNEKMSDPNMEANSHYGHNDDVRNHAMKPINDNKEPLNSDVQYTEVQVSSAESHKDLGKKDTETVYSEVRKAVPDAVESRYSRTEGSLDGT | binds |

Results, then the binder that gave them:

| binding result | Binder |
| --- | --- |
| binds | N-CAR CD300LF (SEQ ID No 1999 with intracellular domain SEQ ID No 2007) (other) EVQLQQSGPELVKPGTSVRISCKTSGYTFTEYTIHWVKQSHGKSLEWIGNINPNNGGTTYNQKFEDKATLTVDKSSSTAYMELRSLTSEDSAVYYCAAGWNFDYWGQGTTVTVSSGGGGSGGGGSGGGGSDIVMTQSHKFMSTSVGDRVSIICKASQDVGTAVDWYQQKPGQSPKLLIYWASTRHTGVPDRFTGSGSGTDFTLTITNVQSEDLADYFCQQYNSYPLTFGAGTMLDLKRAAATERRAEVPTAHPSPSPRPAGQFQTLVVGVVGGLLGSLVLLVWVLAVIWRMMKYQQKAAGMSPEQVLQPLEGDLCYADLTLQLAGTSPQKATTKLSSAQVDQVEVEYVTMASLPKEDISYASLTLGAEDQEPTYCNMGHLSSHLPGRGPEEPTEYSTISRP |
| binds | N-CAR PD1 (ITSM mut3) (SEQ ID No 1999 with intracellular domain SEQ ID No 2016) (other) EVQLQQSGPELVKPGTSVRISCKTSGYTFTEYTIHWVKQSHGKSLEWIGNINPNNGGTTYNQKFEDKATLTVDKSSSTAYMELRSLTSEDSAVYYCAAGWNFDYWGQGTTVTVSSGGGGSGGGGSGGGGSDIVMTQSHKFMSTSVGDRVSIICKASQDVGTAVDWYQQKPGQSPKLLIYWASTRHTGVPDRFTGSGSGTDFTLTITNVQSEDLADYFCQQYNSYPLTFGAGTMLDLKRAAATERRAEVPTAHPSPSPRPAGQFQTLVVGVVGGLLGSLVLLVWVLAVICSRAARGTIGARRTGQPLKEDPSAVPVFSVDYGELDFQWREKTPEPPVPCVPEQTEYASIVFPSGMGTSSPARRGSADGPRSAQPLRPEDGHCSWPL |
| binds | N-CAR PD1-L2-ITSM (SEQ ID No 1999 with intracellular domain SEQ ID No 2012) (other) EVQLQQSGPELVKPGTSVRISCKTSGYTFTEYTIHWVKQSHGKSLEWIGNINPNNGGTTYNQKFEDKATLTVDKSSSTAYMELRSLTSEDSAVYYCAAGWNFDYWGQGTTVTVSSGGGGSGGGGSGGGGSDIVMTQSHKFMSTSVGDRVSIICKASQDVGTAVDWYQQKPGQSPKLLIYWASTRHTGVPDRFTGSGSGTDFTLTITNVQSEDLADYFCQQYNSYPLTFGAGTMLDLKRAAATERRAEVPTAHPSPSPRPAGQFQTLVVGVVGGLLGSLVLLVWVLAVICSRAARGTIGARRTGQPLKEDPSAVPVFSVDYGELDFQWREKTPEPPVPCVPEQTEYATIDFQWREKTPEPPVPCVPEQTEYATIVFPSGMGTSSPARRGSADGPRSAQPLRPEDGHCSWPL |
| binds | N-CAR PD1-PD1 (SEQ ID No 1999 with intracellular domain SEQ ID No 2005) (other) EVQLQQSGPELVKPGTSVRISCKTSGYTFTEYTIHWVKQSHGKSLEWIGNINPNNGGTTYNQKFEDKATLTVDKSSSTAYMELRSLTSEDSAVYYCAAGWNFDYWGQGTTVTVSSGGGGSGGGGSGGGGSDIVMTQSHKFMSTSVGDRVSIICKASQDVGTAVDWYQQKPGQSPKLLIYWASTRHTGVPDRFTGSGSGTDFTLTITNVQSEDLADYFCQQYNSYPLTFGAGTMLDLKRAAATERRAEVPTAHPSPSPRPAGQFQTLVVGVVGGLLGSLVLLVWVLAVICSRAARGTIGARRTGQPLKEDPSAVPVFSVDYGELDFQWREKTPEPPVPCVPEQTEYATIVFPSGMGTSSPARRGSADGPRSAQPLRPEDGHCSWPLCSRAARGTIGARRTGQPLKEDPSAVPVFSVDYGELDFQWREKTPEPPVPCVPEQTEYATIVFPSGMGTSSPARRGSADGPRSAQPLRPEDGHCSWPL |
| binds | N-CAR PD1-L2-ITSM-L2-ITSM (SEQ ID No 1999 with intracellular domain SEQ ID No 2013) (other) EVQLQQSGPELVKPGTSVRISCKTSGYTFTEYTIHWVKQSHGKSLEWIGNINPNNGGTTYNQKFEDKATLTVDKSSSTAYMELRSLTSEDSAVYYCAAGWNFDYWGQGTTVTVSSGGGGSGGGGSGGGGSDIVMTQSHKFMSTSVGDRVSIICKASQDVGTAVDWYQQKPGQSPKLLIYWASTRHTGVPDRFTGSGSGTDFTLTITNVQSEDLADYFCQQYNSYPLTFGAGTMLDLKRAAATERRAEVPTAHPSPSPRPAGQFQTLVVGVVGGLLGSLVLLVWVLAVICSRAARGTIGARRTGQPLKEDPSAVPVFSVDYGELDFQWREKTPEPPVPCVPEQTEYATIDFQWREKTPEPPVPCVPEQTEYATIDFQWREKTPEPPVPCVPEQTEYATIVFPSGMGTSSPARRGSADGPRSAQPLRPEDGHCSWPL |
| binds | N-CAR PD1-TIM3 (SEQ ID No 1999 with intracellular domain SEQ ID No 2006) (other) EVQLQQSGPELVKPGTSVRISCKTSGYTFTEYTIHWVKQSHGKSLEWIGNINPNNGGTTYNQKFEDKATLTVDKSSSTAYMELRSLTSEDSAVYYCAAGWNFDYWGQGTTVTVSSGGGGSGGGGSGGGGSDIVMTQSHKFMSTSVGDRVSIICKASQDVGTAVDWYQQKPGQSPKLLIYWASTRHTGVPDRFTGSGSGTDFTLTITNVQSEDLADYFCQQYNSYPLTFGAGTMLDLKRAAATERRAEVPTAHPSPSPRPAGQFQTLVVGVVGGLLGSLVLLVWVLAVICSRAARGTIGARRTGQPLKEDPSAVPVFSVDYGELDFQWREKTPEPPVPCVPEQTEYATIVFPSGMGTSSPARRGSADGPRSAQPLRPEDGHCSWPLFKWYSHSKEKIQNLSLISLANLPPSGLANAVAEGIRSEENIYTIEENVYEVEEPNEYYCYVSSRQQPSQPLGCRFAMP |
